Experimental data taken from patent US20120178682A1 (published 2012).
Bridge positions count the residues as written; N and C are the ends. Ends that are not written are not given here.

Legend:
[1] = target: VEGF (form and enantiomer not stated at paragraph 530); test: Octet-SPR, preliminary estimate, reference RFX001
[2] = target: VEGF (form and enantiomer not stated at paragraph 530); test: standard SPR, preliminary estimate, reference RFX001

Chain of VEGF (form and enantiomer not stated at paragraph 530) (P15692 whole entry): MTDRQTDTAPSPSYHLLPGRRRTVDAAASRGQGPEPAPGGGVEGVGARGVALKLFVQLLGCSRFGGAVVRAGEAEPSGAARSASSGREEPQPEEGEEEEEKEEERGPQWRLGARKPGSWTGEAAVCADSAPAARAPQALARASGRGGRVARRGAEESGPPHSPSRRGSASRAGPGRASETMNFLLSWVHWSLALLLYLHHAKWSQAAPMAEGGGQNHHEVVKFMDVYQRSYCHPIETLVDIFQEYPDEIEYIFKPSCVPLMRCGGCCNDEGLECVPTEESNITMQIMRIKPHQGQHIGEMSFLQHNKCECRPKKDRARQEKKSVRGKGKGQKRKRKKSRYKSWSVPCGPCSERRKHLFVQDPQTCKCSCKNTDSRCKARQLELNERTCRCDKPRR

B1: RFX002 (enantiomer and preparation not stated at paragraph 530) (designed binder)
chain: TYKMILNGKTLKSECTTEAVDLFDAFDVLFVCAASNFSFIDDWTYDDATKTFTVTE
modifications: disulfide 15-32 (inferred); also: enantiomer (L- or D-form) not given here
- fold increase of binding affinity against RFX001 [1]: ~5 fold
- fold increase of binding affinity against RFX001 [2]: ~2 fold
